Measurements: IntAct's records for PubMed 17599067

B1: Serine/threonine-protein kinase TBK1 (Homo sapiens), Q9UHD2 (parent)
chain: MQSTSNHLWLLSDILGQGATANVFRGRHKKTGDLFAIKVFNNISFLRPVDVQMREFEVLKKLNHKNIVKLFAIEEETTTRHKVLIMEFCPCGSLYTVLEEPSNAYGLPESEFLIVLRDVVGGMNHLRENGIVHRDIKPGNIMRVIGEDGQSVYKLTDFGAARELEDDEQFVSLYGTEEYLHPDMYERAVLRKDHQKKYGATVDLWSIGVTFYHAATGSLPFRPFEGPRRNKEVMYKIITGKPSGAISGVQKAENGPIDWSGDMPVSCSLSRGLQVLLTPVLANILEADQEKCWGFDQFFAETSDILHRMVIHVFSLQQMTAHKIYIHSYNTATIFHELVYKQTKIISSNQELIYEGRRLVLEPGRLAQHFPKTTEENPIFVVSREPLNTIGLIYEKISLPKVHPRYDLDGDASMAKAITGVVCYACRIASTLLLYQELMRKGIRWLIELIKDDYNETVHKKTEVVITLDFCIRNIEKTVKVYEKLMKINLEAAELGEISDIHTKLLRLSSSQGTIETSLQDIDSRLSPGGSLADAWAHQEGTHPKDRNVEKLQVLLNCMTEIYYQFKKDKAERRLAYNEEQIHKFDKQKLYYHATKAMTHFTDECVKKYEAFLNKSEEWIRKMLHLRKQLLSLTNQCFDIEEEVSKYQEYTNELQETLPQKMFTASSGIKHTMTPIYPSSNTLVEMTLGMKKLKEEMEGVVKELAENNHILERFGSLTMDGGLRNVDCL
partner: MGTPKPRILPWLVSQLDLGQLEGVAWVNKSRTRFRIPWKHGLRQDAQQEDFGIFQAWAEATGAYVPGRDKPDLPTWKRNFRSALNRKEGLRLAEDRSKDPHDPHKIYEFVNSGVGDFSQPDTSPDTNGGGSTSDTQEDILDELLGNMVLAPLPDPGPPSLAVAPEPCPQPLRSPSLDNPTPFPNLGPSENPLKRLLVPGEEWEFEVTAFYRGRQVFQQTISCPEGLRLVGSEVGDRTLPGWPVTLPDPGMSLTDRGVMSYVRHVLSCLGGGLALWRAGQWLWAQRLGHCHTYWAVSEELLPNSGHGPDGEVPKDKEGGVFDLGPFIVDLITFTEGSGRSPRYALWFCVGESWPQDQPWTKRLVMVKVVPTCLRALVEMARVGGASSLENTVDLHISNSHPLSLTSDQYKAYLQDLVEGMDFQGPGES
B2: Inhibitor of nuclear factor kappa-B kinase subunit epsilon (Homo sapiens), Q14164 (parent)
chain: MQSTANYLWHTDDLLGQGATASVYKARNKKSGELVAVKVFNTTSYLRPREVQVREFEVLRKLNHQNIVKLFAVEETGGSRQKVLVMEYCSSGSLLSVLESPENAFGLPEDEFLVVLRCVVAGMNHLRENGIVHRDIKPGNIMRLVGEEGQSIYKLTDFGAARELDDDEKFVSVYGTEEYLHPDMYERAVLRKPQQKAFGVTVDLWSIGVTLYHAATGSLPFIPFGGPRRNKEIMYRITTEKPAGAIAGAQRRENGPLEWSYTLPITCQLSLGLQSQLVPILANILEVEQAKCWGFDQFFAETSDILQRVVVHVFSLSQAVLHHIYIHAHNTIAIFQEAVHKQTSVAPRHQEYLFEGHLCVLEPSVSAQHIAHTTASSPLTLFSTAIPKGLAFRDPALDVPKFVPKVDLQADYNTAKGVLGAGYQALRLARALLDGQELMFRGLHWVMEVLQATCRRTLEVARTSLLYLSSSLGTERFSSVAGTPEIQELKAAAELRSRLRTLAEVLSRCSQNITETQESLSSLNRELVKSRDQVHEDRSIQQIQCCLDKMNFIYKQFKKSRMRPGLGYNEEQIHKLDKVNFSHLAKRLLQVFQEECVQKYQASLVTHGKRMRVVHETRNHLRLVGCSVAACNTEAQGVQESLSKLLEELSHQLLQDRAKGAQASPPPIAPYPSPTRKDLLLHMQELCEGMKLLASDLLDNNRIIERLNRVPAPPDV
partner: B1 chain

Variants of: B1
Conditions: with irf3_human IRF3, Q14653

effect of a mutation on the interaction | Variant
disrupting interaction | L352A
disrupting interaction | I353A

Variants of: B2
Conditions: with tbk1_human TBK1, Q9UHD2

effect of a mutation on the interaction | Variant
increasing interaction | L353A
increasing interaction | F354A
